Data reported in a protein production outcome set (Wang et al. 2014).

Test: label from the status in PepcDB records
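Also: failed if final PepcDB status was selected cloned or expressed and not failed if soluble or beyond.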

| Sequence | protein production |
| --- | --- |
| MRICMVSDFFYPSIGGVEEHVYNLSQMLLSLGHKIVVLTHAYGDCSGIRYVTGYLKVYYLPIKVCYNQCILPTAVCNVPMLRAVLLRERVEVVHGHSAFSALAHEALMVGSLLGLKTVFTDHSLFGFADLSAALTNNLLEVNLGMVNHAICVSHIGKENTVLRARVAKHRVSVIPNAVDTALFTPDPQQRPSNDIINIVVASRLVYRKGIDLLAGIIPRFKNTPNINFIIVGDGPKRDLLEEIREKTNMQERVQMVGAVEHNRVRDFLVRGHIFLNTSLTEAYCMAIVEAASCGLQVVSTSVGGIPEVLPKSLILLAEPEIDAIYAAILIAIDRHRKSSFKVSPSVGNGHLASDANGKVKRRRRRKVDTPISPTQLPAVSAPPADQNSSTEPVMCPYRCNELVETLYNWEDVALRTVKVYDRVLNERSFTTSELVFAVWQHGSWFLVFFVVAHFLMRLLELWRPRKHVEIAQDVQRRAS | failed |
| RLLRLKLSSLGVLKVFPNRDEAYKDIFKDLVDSNEILLLGYKGNALLSNSDYPSRLEILEEYSRGQKIAIKALLLSPQAKQYVKKRSVELGEKNLHRNHSRDIEDSIVNFRKVKENGILDVECRLFSEALKWSLLFSDKYILVSFYNNKVRVKLSPCFKLRRSSMLGWAFEKHFRDLWEKKSIDAFTSYTRPCVIVVVGGSFTGKSIISNHLSNKYQFSGVLSTDMVRNFFRISTRDRKTYQTSTYRMDDSELNIQKNNVSNMIEQMLEIYRSRREKIIIEGMHLTEDFLRNINKQDCLIIGLDNKRDINDRLDLKMKTTREEVSKKTEDEKKRINEIHYGIIECCKRNNFKVVEFQDIEDAKDKCEHLVEEFFTQRSKR | failed |
| MEKILDLLMSFVKEDEGKLDLASFPLRNTTAGAHLLLKTENVVASGIEVSRMFLEKMGLLSKFNVEDGEYLEGTGVIGEIEGNTYKLLVAERTLLNVLSVMFSVATTTRRFAEKLKHAKIAATRKILPGLGVLQKIAVVHGGGDPHRLDLSGCVMIKDNHLKMYGSAERAVQEVRKIIPFTTKIEVEVENLEDALRAVEAGADIVMLDNLSPEEVKDISRRIKDINPNVIVEVSGGITEENVSLYDFETVDVISSSRLTLQEVFVDLSLEIQR | not failed |
| MGFSDAGIYLSDPNNLCQTELGFFHEPSLGFSDQSDPQNEFHITPPIYQELQDQDLEPKSQETNNCSRKEGATVKKEEEEEDDYCKTPTRSDQILSAMPRICPPAPRKPKRVPSRSLKVRNSYRSKRMIILNVSREIDCLFNPTSLCNKIKKARYI | failed |
| MATAGNPWGWFLGYLILGVAGSLVSGSCSQIINGEDCSPHSQPWQAALVMENELFCSGVLVHPQWVLSAAHCFQNSYTIGLGLHSLEADQEPGSQMVEASLSVRHPEYNRPLLANDLMLIKLDESVSESDTIRSISIASQCPTAGNSCLVSGWGLLANGRMPTVLQCVNVSVVSEEVCSKLYDPLYHPSMFCAGGGQDQKDSCNGDSGGPLICNGYLQGLVSFGKAPCGQVGVPGVYTNLCKFTEWIEKTVQAS | not failed |
| MGGNRQQEIASGCCLVAEQHDQVVAYASYQPTGLLGQPLLTYLCVAPAMRGQGIAKQLVETIQGQARGRMLLSSTEDWCLASQKIFTDLGWRKIGALAGVNKDGSTEYFYAVDLNH | failed |
| MSNSQWVPVSLNEYLAHLPMSDEQRAELASCTTFAELHERLSAQPVTDPAEAAQASVGRRLTLSADDLEDAEMLGVDASGRLCLKATPPIRRTKVVPEPWRTNILVRGWRRLTGKSNPPKPDHSDLPRDLPKSRWRTVGSIRRYILLILMLGQTIVAGSYMKGILPYQGWSLVSLDEITRQTFVQTALQVLPYALQTSILLLFGILFCWVSAGFWTALMGFLELLTGRDKYRISGASAGNEPIEAGARTALVMPICNEDVPRVFAGLRATFESVAATGNLDRFDFFVLSDTNETDIAVAEQQAWLDVCRETKGFGSIFYRRRRRRVKRKSGNLDDFCRRWGGEYRYMVVLDADSVMSGECLTSLVRLMEATPDAGIIQTAPRASGMDTLYARMQQFATRVYGPLFTAGLHFWQLGESHYWGHNAIIRMKPFIEHCALAPLPGKGAFAGAILSHDFVEAALMRRAGWGVWIAYDLPGSYEELPPNLLDELKRDRRWCHGNLMNFRLFLVKGMHPVHRAVFLTGVMSYLSAPLWFFFLVLSTALLAVNTLMEPTYFLEPRQLYPLWPQWHPERAVALFSTTIVLLFLPKLLSVILIWAKGAKGFGGKFKVTVSMLLEMLFSVLLAPVRMLFHTRFVLAAFLGWAATWNSPQRDDDSTPWLEAVKRHGPQTLLGACWALLVFWLNPSFLWWLAPIVVSLMLSIPVSVISSRTNLGLKARDEKFFLIPEEFEPPQELVSTDQYTHENRWHALKQGFIRAVVDPRQNALACALATSRHRQAQPIEVVRMERVDHALKVGPAKLDNQHRLMLLSDPVALGRLHERVWSEGHEEWLAAWRASIEADPHAPLLPLQPVVKAPEPVLV | failed |
| MTNNAKKEPQQRGKHQVHNVRFYTIKPREIVSLAYSKSSKCLALSRATPVIELWNLEHAPYLDRVIHLPTDSHVESIAWAGNRLFSVDLSGKLIEWDVIKLKQRYEHSPTGNALWSIDVNPAETDIAIGSEEGHINILSIENDEITYKSLFNKQKGRVLCIKFDKTGTKLVTGTEGFVRIWNVLKGTTLHTMTLSEKNVIVWSLQVLSDNTIIAGDSAGFVTVWDADNATQIDSTRVLDKNVFALAVNNKEDRLVCSGMQPPLIRIFSKTKIKREESTSERWIKFLQRDAHKHYVKSLLVIDDQIYSGGRDGILTITSSERMQAHLSQHAPFLKGSVASMAISKKLLLLRYPNSVHLWRLGSVAPQGEDKKKPWALPVGHTEEQLLELPPQKLLQLNVKEHNFIQSAAISSDANWICYSTLKELRISRLKSDPLQVERLVDDLPEELQPASHIIFTKQGDLVLLNPQNNHLSWFTLEEDLVTFKYTIDLSEKCKNTISHVVISSHGEYIVAASSDHIISVWKLHGKQYKHLLNLPRHRAGTTALSMHEDYPRVVVAYANGQLVEYDLVNRIFTCETNEYLIPETRRHCINGISLDPQNRNIFIVHTEGNLYVLERDQHLDPKELVSNSKSKKLSNGNRSSVDGGSKGLSLKTTLSRQHLVHVSRLSPNELVNVSISTNNLLAPLPPPYQRKKFGAS | failed |
| MAANRRNETASEAHGLDDILSAAAPRPRTALPNVATTVTTVAALYFGREVFLPIAIALLLTFALAPLVSALKRVGIPRIAAVIVSVLSAFAALALFSFVVATQVSELAQNIPVYQTNILAKIRSLKETGVGGGIIAKLSNVVERVGQEIDRQDATLPAATPDKQPREPVPVEIVARERPLEVLQNIVGPLISPLGSAGLIIVVVIFMLLEREDLRDRFIRLVGYGDLHRTTEALQDAAKRVGRYLLMQLVVNIVYAIPIAIGLWILGIPNALLWGLLALALRFVPYIGPAIGMLLPLFLALAVAPGWSLVLWTAALFVVMELVTGNVVEPWLYGSRTGLSPLAIIVAAIFWTWLWGPLGLVLSTPLTVCLVVLGRHVPQFEFLDVLFGNEPVLEPHARLYQRLLAGDPDEATDHAEEMLEEKYLVEFYDKVAIPALLLGERDRARGVMGDQQRRQVAASALALVANLEDDAKEEADGDDAPHVAEAEGEPGDAVEEEATELPDGTGLSVLCAGGRGDLDDAAAAMLAQVLEVQGATASKAGFAEMEPASIRRLELETIDTVVVGFLNRDSVKHARFLVRRLKRAKAALRVGIVFWSETGNGDKEAAAKLAQDINADFVAHGMVDAVTDALSHEPPVALKLVAKRRMRRPRAAPRKVPAAAAG | failed |
| MRGEGRRIGAMSETPEIPGSGYRTGEALLRAGDIAGAITAFRGHLAASPDDALGWFALGSALFFAQRWEETRAAYARAAAIDRAYTLGGLLRPGDVETALDPAPFLGQLPEMSMIIPPAHSGPLAVVGCDSAYFLDFGAALALSMDKAAPGWGLHLHLIAPTTPALDLLERLIGGLRAITLSFSLEHLPPALRAPEAQRTYLACLRFMRLPAILDEQQARAGRVPVVVLDADSLMCKPLLGPDDWRPPGPEGGWRAGWDVALKDSGLFPLGPLWRYSASCVGLAPTDEARAFAAHVATLLARQALTVNGLGWMIDQFALAVAIAARQTQSPAFRLGDWPDRLYRLYENPPDAALWSFCSQSKYDDRLYRDMVRLLLAEMG | failed |
| MEKPGGFWIPKKSNKESSWEELAFAEDDAAGSLWPPRSYTCSFCRREFKSAQALGGHMNVHRRDRARLKQADDQYLFPKSSSSPEYPSHKDSDNIHETSCYTLVFNTKPNYFKTQHSCVIDLSSSSSLPYLTPSRVSSGLPGKQHTSSSPPSFVVEPSKNSKYIPSSSPWSCPSTVVEQKSCDLYEIPAMEGEKKRKTESDVPKIGHKAKLSLGNTTDLSVSMNLVIHQSFPITAHGSDEEIGRVDIRKRRRRHESPSQQSIFISSLSCKSDIITRNEESKHKGDRFEDLDLELRLGTDPPKGI | failed |
